Consider five molecules from US6916472B2, “PON3 and uses thereof” (Regents of the University of Michigan, priority 2000, dated 2005).

Numbering of substitutions follows the chain as printed. In names and notes the source's numbering stands.

Series [1] relates to mice given LD100 dose of LPS. Conditions: cited from earlier work.
Series [2] is described as follows: Statinase activity of samples of BL21(DE3) culture expressing rPON3. The series is classed as biochemical. The settings on record: culture sample. Here is the method:
(§1) The hydrolysis of the statin lactones (mevastatin, lovastatin and simvastatin) was analyzed by high performance liquid chromatography (HPLC) using a Beckman System Gold HPLC with a Model 126 Programmable Solvent Module, a Model 168 Diode Array Detector set at 238 nm, a Model 7125 Rheodyne manual injector valve with a 20 μl loop, and a Beckman ODS Ultrasphere column (C 18, 250×4.6 mm, 5 μm). Lovastatin (Mevacor) and simvastatin were purchased as 20 mg tablets from Merck, from which the lactones were extracted with chloroform, evaporated to dryness and redissolved in methanol. Mevastatin was purchased from Sigma.
In a final volume of 1 ml, 10-200 μl of enzyme solution and 10 μl of substrate solution in methanol (0.5 mg/ml) were incubated at 25° C. in 50 mM Tris/HCl (pH 7.6), 1 mM CaCl2. Aliquots (100 μl) were removed at specified times and added to acetonitrile (100 μl), vortexed, and centrifuged for one minute at maximum speed (Beckman microfuge). The supernatants were poured into new tubes, capped and stored on ice until HPLC analysis.
Samples were eluted isocratically at a flow rate of 1.0 ml/min with a mobile phase consisting of the following: A=acetic acid/acetonitrile/water (2:249:249, v/v/v) and B=acetonitrile, in A/B ratios of 50/50, 45/55 and 40/60 for mevastatin, lovastatin and simvastatin, respectively. Under the above conditions the retention times for the carboxylic acid formed and the lactone substrate were as follows: 4.5/6.4 min (mevastatin), 4.4/5.6 min (lovastatin) and 5.4/7.7 min (simvastatin), respectively. Response factors for the acid products were calculated from the peak heights after complete alkaline hydrolysis of the lactones in 0.02 M NAOH for 2-24 hours at 25° C.
This Example describes the expression of rabbit PON3 protein in bacteria. The endogenous NcoI site at the translation start site, and an engineered XhoI site in the 3′ UTR were used to clone the rPON3 cDNA into the bacterial expression vector pET24d+. The resulting vector (prPON3/pET24d) was transformed into bacterial BL21(DE3) cells. LB broth supplemented with […] Kanamycin was inoculated with a single colony and the bacteria were grown at 37° C. When the culture reached an OD600 of 0.7, IPTG (1 mM) was added and growth continued. Samples of the culture were taken at the time of induction and 1, 2, 4, and 16 hours post-induction. Samples were electrophoresed through a 10% SDS-PAGE gel and Western blotted with a human PON1 antibody. An inducible, 40 kDa band was visible in the 1, 2, 4, and 16 time point lanes that aligned with a rPON3 standard. The samples were also assayed and found to have 257, 8663, 6178, 5872, and 8436 U/ml statinase activity for time points 0, 1, 2, 4, and 16 respectively.

The test system of series [3] is LDL. Nature of the series: Protection of LDL against copper-induced oxidation (conjugated dienes, lipid peroxides). Conditions: LDL 0.1 mg protein/ml, 2-10 μM CuSO4, up to 5 h at 37° C. The series is classed as biochemical, rabbit. On the procedure:
In one illustrative example (Example 5) of the present invention, the ability of PON3 to protect against LDL oxidation was assayed. In this example, LDL oxidation was induced by the incubation of the lipoprotein with 2-10 μM CuSO4 in the air, in the absence or presence of PON3 or PON 1, for up to 5 h at 37° C. The kinetics of lipoprotein oxidation was followed by monitoring the conjugated dienes formation at 234 nm (Esterbauer et al., Free Radical Res Commun, 6:67-75 [1989]) using a quartz microtiter plate in a SPECTRAmax® 190 plate reader (Molecular Devices). Lipoprotein oxidation was also determined by the lipid peroxides test, which analyzes lipid peroxides by their capacity to convert iodide to iodine, as measured photometrically at 365 nm (E1-Saadani et al., J Lipid Res, 30:627-630 [1989]).
LDL were isolated by ultracentrifugation as described above (Example 4). […] The kinetics of lipoprotein oxidation was followed by monitoring the conjugated dienes formation at 234 nm (Esterbauer et al., Free Radical Res Commun, 6:67-75 [1989]) using a quartz microtiter plate in a SPECTRAmax 190 plate reader (Molecular Devices). Lipoprotein oxidation was also determined by the lipid peroxides test, which analyzes lipid peroxides by their capacity to convert iodide to iodine, as measured photometrically at 365 nm (E1-Saadani et al., J Lipid Res, 30:627-630 [1989]).

A short description of series [4]: Lactonase activity of wild type and mutant rPON3 in expression media of transfected 293T cells. The series is classed as biochemical. Conditions: Lovastatin hydrolysis; based on quantitation of western blot. Here is the method: as §1, with “Sigma. […]” for “Sigma.”
Samples were eluted isocratically at a flow rate of 1.0 ml/min with a mobile phase consisting of the following: A=acetic acid/acetonitrile/water (2:249:249, v/v/v) and B=acetonitrile, in A/B ratios of 50/50, 45/55 and 40/60 for mevastatin, lovastatin and simvastatin, respectively. […] Response factors for the acid products were calculated from the peak heights after complete alkaline hydrolysis of the lactones in 0.02 M NAOH for 2-24 hours at 25° C.
Expression media from the transient transfection of mutant clones into 293T cells was analyzed for activity towards the lactone Lovastatin up to 4 days post transfection.
Specific activities were calculated based on quantitation of the western blot in FIG. 10. […]

B1: human PON1: purified human PON1 (paraoxonase 1), literature study of LaDu et al. (protein, UniProt P27169 2-355, looked up)
Serum …: AKLIALTLLGMGLALFRNHQSSYQTRLNALREVQPVELPNCNLVKGIETGSEDLEILPNGLAFISSGLKYPGIKSFNPNSPGKILLMDLNEEDPTVLELGITGSKFDVSSFNPHGISTFTDEDNAMYLLVVNHPDAKSTVELFKFQEEEKSLLHLKTIRHKLLPNLNDIVAVGPEHFYGTNDHYFLDPYLQSWEMYLGLAWSYVVYYSPSEVRVVAEGFDFANGINISPDGKYVYIAELLAHKIHVYEKHANWTLTPLKSLDFNTLVDNISVDPETGDLWVGCHPNGMKIFFYDSENPPASEVLRIQNILTEEPKVTQVYAENGTVLQGSTVASVYKGKLLIGTVFHKALYCEL
For the molecule B1, the “survival, pretreated animals” value in series [1] (i.p. injection before LD100 dose of LPS) is 60%. Also, the “survival, post-treated animals” value in series [1] (i.p. injection up to 2 hours after LD100 dose of LPS) was 30%.

B2: rPON3: recombinant rabbit PON3 expressed in 293T cells or E. coli BL21(DE3) (protein)
chain: AKLLLLTLLGASLAFVGERLLAFRNSFGAVQELEPVEPQNCVLIEGLENGSEDIDILPSGLAFISSGLKYPGMPNFAPDEPGKIFLIDMNEKNPRAQELEISNGFEKESFNPHGISTFIDKDHTVYLYVVNHPHMKSTVEIFKFEEQQRSLVHLKTIKHELLKSVNNIVVLGPEQFYATRDHYFTNYVLALLEMFLDLHWTSVLFYSPKEVKVVAKGFSSANGITVSLDKKYVYVADATAKNVHVMEKHDNWDLTELKVIHLDTLVDNLSVDPATGDILAGCHPNGMKLLNYNPEDPPGSEVLRIQNVLSEKPRVSTVYTNDGSVLQGSTVASVYQGKILIGTIFHKTLYCVL
Turning to B2, the statinase activity in series [2] (1 hour post-induction) amounted to 8663 U/ml; in series [2] (2 hours post-induction), 6178 U/ml; in series [2] (4 hours post-induction), 5872 U/ml; in series [2] (16 hours post-induction) it was 8436 U/ml; in series [2] (time point 0 (time of IPTG induction)) it was 257 U/ml.

B3: PON3: paroxonase 3 polypeptide purified from rabbit serum, 40 kDa, SEQ ID NO:8 (protein, listed as Oryctolagus cuniculus)
chain: MAKLLLLTLLGASLAFVGERLLAFRNSFGAVQELEPVEPQNCVLIEGLENGSEDIDILPSGLAFISSGLKYPGMPNFAPDEPGKIFLIDMNEKNPRAQELEISNGFEKESFNPHGISTFIDKDHTVYLYVVNHPHMKSTVEIFKFEEQQRSLVHLKTIKHELLKSVNNIVVLGPEQFYATRDHYFTNYVLALLEMFLDLHWTSVLFYSPKEVKVVAKGFSSANGITVSLDKKYVYVADATAKNVHVMEKHDNWDLTELKVIHLDTLVDNLSVDPATGDILAGCHPNGMKLLNYNPEDPPGSEVLRIQNVLSEKPRVSTVYTNDGSVLQGSTVASVYQGKILIGTIFHKTLYCVL
Turning to B3, the “inhibiting conjugated diene and lipid peroxide formation, compared with PON1” value in series [3] is on record as “significantly better”.

B4: K243H: site-directed single amino acid change mutant of rabbit PON3, SEQ ID NO:12 (protein, listed as Oryctolagus cuniculus)
chain: B3 chain with K242H
On to B4, for which, in series [4], the “specific activity compared to the wild type (fraction)” value is listed as “about ⅓”.

B5: L281W: site-directed single amino acid change mutant of rabbit PON3, SEQ ID NO:14 (protein, listed as Oryctolagus cuniculus)
chain: B3 chain with L280W
Consider B5, for which the “specific activity compared to the wild type (fraction)” value in series [4] is given as “about ⅓”.
